According to patent US20250115677A1, “Anti-CEA Antibody Drug Conjugates and Methods of Use” (BeiGene Switzerland GmbH, priority 2022, published 2025):

T1: CEA variant (CEA-v) (human, UniProt P06731 35-687)
T1 construct: Splice-variant construct made by overlap PCR of CEA AA 1-78 and AA 398-687, C-terminal 6xHis; also called sCEA-v
T1 sequence: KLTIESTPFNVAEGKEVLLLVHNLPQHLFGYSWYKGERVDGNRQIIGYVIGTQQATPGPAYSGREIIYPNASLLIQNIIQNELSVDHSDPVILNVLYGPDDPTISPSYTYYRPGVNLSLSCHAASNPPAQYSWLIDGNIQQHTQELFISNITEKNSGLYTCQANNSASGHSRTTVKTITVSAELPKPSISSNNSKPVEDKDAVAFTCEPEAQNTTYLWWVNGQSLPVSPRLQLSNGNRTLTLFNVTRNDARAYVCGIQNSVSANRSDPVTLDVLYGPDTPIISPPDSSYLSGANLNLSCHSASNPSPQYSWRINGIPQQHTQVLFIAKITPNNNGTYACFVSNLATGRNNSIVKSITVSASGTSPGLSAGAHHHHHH

T2: chimeric construct (CHIM) (human)
T2 construct: CEACAM6 AA 1-273 joined to the membrane-peripheral region containing domain B3 of CEA (AA 596-687), C-terminal 6xHis; also called chimeric CEA
T2 chain: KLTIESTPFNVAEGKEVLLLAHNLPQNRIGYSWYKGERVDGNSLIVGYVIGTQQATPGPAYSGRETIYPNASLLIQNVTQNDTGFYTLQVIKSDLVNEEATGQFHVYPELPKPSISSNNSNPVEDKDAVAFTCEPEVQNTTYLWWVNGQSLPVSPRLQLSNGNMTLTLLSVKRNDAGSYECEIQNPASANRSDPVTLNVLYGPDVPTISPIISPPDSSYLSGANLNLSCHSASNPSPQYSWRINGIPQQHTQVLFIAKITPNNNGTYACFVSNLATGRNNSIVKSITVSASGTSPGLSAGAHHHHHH

T3: CEA (Homo sapiens, UniProt P06731)
T3 sequence (P06731 35-676): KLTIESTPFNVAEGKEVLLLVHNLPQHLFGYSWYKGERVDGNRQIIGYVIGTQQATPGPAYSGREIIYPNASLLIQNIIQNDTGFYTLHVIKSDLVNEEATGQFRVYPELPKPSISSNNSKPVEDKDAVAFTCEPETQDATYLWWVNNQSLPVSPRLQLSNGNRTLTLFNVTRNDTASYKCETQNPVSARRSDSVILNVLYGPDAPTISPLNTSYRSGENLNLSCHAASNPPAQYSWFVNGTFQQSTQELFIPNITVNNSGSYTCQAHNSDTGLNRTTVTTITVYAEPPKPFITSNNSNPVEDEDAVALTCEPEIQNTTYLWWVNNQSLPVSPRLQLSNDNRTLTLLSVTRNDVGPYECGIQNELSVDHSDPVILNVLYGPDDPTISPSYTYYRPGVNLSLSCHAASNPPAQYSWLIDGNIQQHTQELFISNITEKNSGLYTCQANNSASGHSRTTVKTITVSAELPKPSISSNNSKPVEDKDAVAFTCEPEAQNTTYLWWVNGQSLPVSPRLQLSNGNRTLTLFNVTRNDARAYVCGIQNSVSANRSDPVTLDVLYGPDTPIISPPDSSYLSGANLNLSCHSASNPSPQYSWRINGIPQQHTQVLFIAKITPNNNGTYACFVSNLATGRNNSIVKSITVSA


Columns and labels:
CEA variant (CEA-v) = molecular target: T1, CEA variant (CEA-v); assay: SPR (BIAcore T-200); antibody captured by anti-murine IgG, antigen flowed
Protocol: (§1) Briefly, anti-murine IgG antibody was immobilized on an activated CM5 biosensor chip (Cat. No. BR100530, GE Life Sciences). Purified murine antibodies were flowed over the chip surface and captured by anti-murine IgG antibody. […] The equilibrium dissociation constant (KD) was calculated as the ratio koff/kₒₙ.

[1] = molecular target: T2, chimeric construct (CHIM); assay: as above
Protocol: as §1

CEA = molecular target: T3, CEA; assay: Binding of humanized and PTM-engineered BGA7592 variants compared to BGA7592-1
Text: Using BGA7592-1, an additional number of single or multiple amino acid changes were made, converting the human residues in framework regions of VH and VL to corresponding murine germline residues, which include V68A, R72A and V79A in VH and V43S in VL, respectively. This resulted BGA7592-2 (V68A, R72A in VH), BGA7592-3 (V79A in VH), BGA7592-4 (V68A, R72A, V79A in VH), BGA7592-5 (V43S in VL), BGA7592-6 (V68A, R72A in VH, and V43S in VL), BGA7592-7 (V79A in VH, V43S in VL) and BGA7592-8 (V68A, R72A, V79A, in VH and V43S in VL). All antibodies which contained modifications had similar binding activities to BGA7592-1, and none of the changes abolished binding.
In order to remove post-translational modification (PTM) sites, further engineering was made by introducing mutations in CDRs and framework regions based on the BGA75921 sequence, which include N52T, N54Q, N59S, N102G, N104Q and S61A amino acid changes in the VH region. […] While maintaining specificity, amino acid compositions and expression levels were also considered. All humanization mutations were made using primers containing mutations at specific positions and a site directed mutagenesis kit (Cat. FM 111-02, TransGen, Beijing, China). The desired mutations were verified by sequence analysis.

Row | Molecule | Kd (CEA variant (CEA-v)) [nM] | Kd [1] [nM] | binding affinities compared to BGA7592-1 (CEA)
1 | BGA7592 (antibody, V domains shown, Murine monoclonal antibody purified from hybridoma supernatant; also called murine anti-CEA antibody BGA7592) VH: QVQLQQSGAELAKSGASVKMSCKASGYIFTSYWLHWVKQRPGQGLEWIGYINPNTGYTNYSQKFKDKATLTADKSSSTAYMQLSSLTSEDSAVYYCAREYGNYNYPLDYWGQGTSVTVSS VL: DIQMTQSPASLSASVGETVTITCRASENIYGYLAWYQQKQGKSPQLLVFNAKNLVEGVPSRFSGSGSGTQFSLKINSLQPEDFGSYYCQHHYGTPYTFGGGTKLEIK | 150 | 120 | 
2 | BGA7592-1F: "BGA7592-1F (N54Q, N59S, S61 A (VH))"; humanized, "no glycosylation sites but had a high expression level" (antibody, V domains shown) VH: QVQLVQSGAEVKKPGASVKVSCKASGYIFTSYWLHWVRQAPGQGLEWIGYINPQTGYTSYAQKFQGRVTMTRDTSTSTVYMELSSLRSEDTAVYYCAREYGNYNYPLDYWGQGTLVTVSS VL: DIQMTQSPSSLSASVGDRVTITCRASENIYGYLAWYQQKPGKVPKLLIYNAKNLVEGVPSRFSGSGSGTDFTLTISSLQPEDVATYYCQHHYGTPYTFGQGTKVEIK |  |  | significantly reduced binding affinities
